The labels stand for the following.
B1: R1 CTF25 R2 CTF25 heterodimer (peptide)
peptide 1: HFYGVSNLQEFRYGLEGGCTDDTLL
peptide 2: HFHGVSNLQEFRFMIGGGCSEEDAL
modifications: disulfide I:19-II:19
B2: R1 CTF32 R1 CTF32 homodimer (peptide)
peptide: VVAAAFVHFYGVSNLQEFRYGLEGGCTDDTLL
modifications: also: homodimer: inter-chain disulfide between Cys26 of both mer units
B3: R1 CTF32 (peptide)
peptide: VVAAAFVHFYGVSNLQEFRYGLEGGCTDDTLL
B4: R2 CTF32 (peptide)
peptide: VVAGAFVHFHGVSNLQEFRFMIGGGCSEEDAL
B5: R1 CTF32 R2 CTF32 heterodimer (peptide)
peptide 1: VVAAAFVHFYGVSNLQEFRYGLEGGCTDDTLL
peptide 2: VVAGAFVHFHGVSNLQEFRFMIGGGCSEEDAL
modifications: disulfide I:26-II:26
B6: R2 CTF32 R2 CTF32 homodimer (peptide)
peptide: VVAGAFVHFHGVSNLQEFRFMIGGGCSEEDAL
modifications: also: homodimer: inter-chain disulfide between Cys26 of both mer units
B7: R1 CTF25 (peptide)
peptide: HFYGVSNLQEFRYGLEGGCTDDTLL
B8: R2 CTF25 (peptide)
peptide: HFHGVSNLQEFRFMIGGGCSEEDAL

Bridge positions count the residues as written; N and C are the ends. Ends that are not written are not given here. I, II: the chains in the order shown.

For the assay, the target named is insulin degradation enzyme (IDE) (UniProt P14735 42-1019, limits assumed). Kind of assay: cell-based or functional assay.
Consider B1, for which the “IDE Inhibition (90% inhibition at)” value stood at 0.6 µg/mL.

Regarding B2, the “IDE Inhibition (90% inhibition at)” value came out at 22.5 µg/mL.

For B3, the “IDE Inhibition (90% inhibition at)” value amounted to 50 µg/mL.

Consider B4, for which the “IDE Inhibition (90% inhibition at)” value was 40 µg/mL.

With B5, the “IDE Inhibition (90% inhibition at)” value stood at 1.2 µg/mL.

On to B6, for which the “IDE Inhibition (90% inhibition at)” value was found to be 19 µg/mL.

With B7, the “IDE Inhibition (90% inhibition at)” value came out at 12.4 µg/mL.

Regarding B8, the “IDE Inhibition (90% inhibition at)” value worked out at 9 µg/mL.
